# Reference: patent US20240043559A1 (SHANGHAI HENLIUS BIOTECH, published 2024)
# B1: 1B01 llama-human chimeric bivalent VHH-Fc (Fc fusion)
# chain: QVQLQESGGGLVQAGGSLRLSCAAVGLPFSNYAMGWFRQAPGEEREFVSAVSANGGNEYYADSVKDRFTISRDNAKNTVYLRMLSLKLEDTAIYYCATVRRRGGTFTVGSYRGQGTQVTVSS
# notes: also called Clone 1B01; 1B01 llama VHH; not shown: human IgG1 Fc fused to the C-terminal of the VHH
# Assays:
# [1] = biological target: human GPC3 expressed endogenously on hepatoma cells (HepG2, Hep3B) (human) (UniProt P51654); assay: flow cytometry on HepG2 cells (endogenous GPC3)
# [2] = biological target: human GPC3 expressed endogenously on hepatoma cells (HepG2, Hep3B) (human) (UniProt P51654); assay: flow cytometry on Hep3B cells (endogenous GPC3)
# [3] = biological target: recombinant human GPC3 protein (human) (UniProt P51654); assay: ELISA on plate-coated human GPC3
# [4] = biological target: T1, human GPC3 expressed endogenously on hepatoma cells (HepG2, Hep3B) (human, UniProt P51654 25-554); assay: flow cytometry on HepG2 cells (endogenous GPC3)
# T1 construct: also called GPC3 on HepG2; GPC3 on Hep3B
# T1 sequence (P51654 other isoform, or with tags, fused parts or gaps limits assumed, form in doubt): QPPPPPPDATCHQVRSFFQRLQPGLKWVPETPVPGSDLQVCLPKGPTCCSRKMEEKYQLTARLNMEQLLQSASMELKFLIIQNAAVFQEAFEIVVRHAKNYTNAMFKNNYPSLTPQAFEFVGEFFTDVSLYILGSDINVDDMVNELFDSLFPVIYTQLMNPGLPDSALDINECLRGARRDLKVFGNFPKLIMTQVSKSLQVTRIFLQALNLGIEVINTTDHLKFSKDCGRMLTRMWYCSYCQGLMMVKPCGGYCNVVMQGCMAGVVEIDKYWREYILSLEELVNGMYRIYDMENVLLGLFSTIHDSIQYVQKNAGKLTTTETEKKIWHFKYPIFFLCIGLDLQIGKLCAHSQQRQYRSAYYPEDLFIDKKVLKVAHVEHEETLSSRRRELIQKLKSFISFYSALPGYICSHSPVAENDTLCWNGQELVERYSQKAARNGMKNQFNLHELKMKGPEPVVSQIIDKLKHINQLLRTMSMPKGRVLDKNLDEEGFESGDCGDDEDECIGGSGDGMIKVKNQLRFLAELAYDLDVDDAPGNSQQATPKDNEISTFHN
# human GPC3 expressed endogenously on hepatoma cells (HepG2, Hep3B) (human), sequence (P51654 other isoform, or with tags, fused parts or gaps limits assumed, form in doubt): as above
# recombinant human GPC3 protein (human), sequence (P51654 other isoform, or with tags, fused parts or gaps limits assumed, form in doubt): as above
Molecule,EC50 (read off the curve) [1] [nM],EC50 (read off the curve) [2] [nM],EC50 (read off the curve) [3] [µg/mL],EC50 (read off the curve) [4] [nM]
HN3 VHH-Fc (Fc fusion),2,2,0.02,–
B1,–,–,–,~0.3
